Data on 4 molecules can be found in article PMC2173386 (The Journal of Cell Biology, 2002).

For experiment [1], the target named is T1, His-p47(171–270) (UniProt O35987 171-270).
T1 sequence (looked up): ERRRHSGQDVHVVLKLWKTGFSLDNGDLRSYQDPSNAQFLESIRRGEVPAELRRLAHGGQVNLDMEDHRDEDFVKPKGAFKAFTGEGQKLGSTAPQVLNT
Nature of the experiment: pull-down.

For experiment [2], the target named is T2, p97 (valosin-containing protein) (rat, UniProt P46462 1-806). Nature of the experiment: pull-down.
Experiment [3] addresses T2, p97 (valosin-containing protein). Briefly: co-IP.

B1: GST-tagged p97(1–74) (domain or fragment, rat, UniProt P46462 1-74, looked up)
chain: MASGADSKGDDLSTAILKQKNRPNRLIVDEAINEDNSVVSLSQPKMDELQLFRGDTVLLKGKKRREAVCIVLSD
Consider B1, for which the binding result in experiment [1] was “binds”.

B2: GST-tagged p47(171–270) (domain or fragment, UniProt O35987 171-270, looked up)
chain: T1 sequence (looked up)
As to B2, the binding result in experiment [2] is reported as “binds”.

B3: His-tagged VCIP135(744–1221) (domain or fragment, rat, UniProt Q8CF97 744-1221, looked up)
chain: TVSPSTIRDGPSSAPATPTKAPYSPTTSKEKKIRITTNDGRQSMVTLKSSTTFFELQESIAREFNIPPYLQCIRYGFPPKELMPPQAGMEKEPVPLQHGDRITIEILKGKAEGGPSTAAHSAHTVRQEEIAVTGKLSSKELQEQADKEMYSLCLLATLMGEDVWSYAKGLPHMFQQGGVFYNIMKKTMGMADGKHCTFPHLPGKTFVYNASEDRLELCVDAAGHFPIGPDVEDLVKEAVSQVRAEATTRSRESSPSHGLLKLGSGGVVKKKSEQLHNVTAFQGKGHSLGTASSNPHMDPRARETLAVRKHNTGTDFSNSSIKTEPPVFTAASSNSELIRIAPGVVTMRDGRQIDPDVVEAQRKKLQEMVSSIQASMDKHLRDQSTEQTPSDLSQRKVEAVSSSVRPGNLQTGLPESFSLTGGTENLNTETTDSRVADVLGAAFATRSKAQKENSMEEPEEMDSQDAETTNTTEPMDHS
As for B3, in experiment [3], the binding result is “binds”.

B4: GST-tagged p47(271–370) (domain or fragment, UniProt O35987 271-370, looked up)
chain: SSPAQQAENEAKASSSILINEAEPTTNIQIRLADGGRLVQKFNHSHRISDIRLFIVDARPAMAATSFVLMTTFPNKELADENQTLKEANLLNAVIVQRLT
Consider B4, for which the binding result in experiment [2] is given as “binds”.
